Data from PMC2493294.

Target: t-SNARE complex (syntaxin HT and SNAP-25) (rat) (UniProt P32851)
Test: EPR spectroscopy

With “complexin I C105A R56C, spin-labeled at position 56 (from UniProt P63041 2-134) (natural protein)” as the substance, how does the Kd read?
Its Kd is 50 µM.
